How the values were obtained:
Assay in all cases: FP; FP: PBS + 0.05% Tween20, 5 nM DNA, 1 h, room temperature; SPR: Biacore S200, SA chip, protein 0.1-4500 nM, running buffer not given in material; errors are SD
[1] = molecular target: T1, IRF4 DBD wild-type (Homo sapiens, UniProt Q15306 20-132); details: protein: recombinant; tags: N-terminal His8-linker-His8-TEV, cleaved; label: 3' fluorescein (FAM); hairpin, TTTT loop
T1 sequence: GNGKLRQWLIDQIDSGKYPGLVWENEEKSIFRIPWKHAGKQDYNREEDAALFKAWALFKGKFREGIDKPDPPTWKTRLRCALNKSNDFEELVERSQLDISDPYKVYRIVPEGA

[2] = molecular target: T2, IRF4 DBD D117H (Homo sapiens, UniProt Q15306 20-132, D117H); details: protein: recombinant; tags: N-terminal His8-linker-His8-TEV, cleaved; label: 3' fluorescein (FAM); hairpin, TTTT loop
T2 sequence: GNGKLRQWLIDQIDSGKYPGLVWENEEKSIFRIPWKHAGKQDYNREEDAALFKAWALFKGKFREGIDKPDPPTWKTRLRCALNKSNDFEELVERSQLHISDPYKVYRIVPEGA

[3] = molecular target: T3, IRF4 DBD C99R (Homo sapiens, UniProt Q15306 20-132, C99R); details: protein: recombinant; tags: N-terminal His8-linker-His8-TEV, cleaved; label: 3' fluorescein (FAM); hairpin, TTTT loop
T3 sequence: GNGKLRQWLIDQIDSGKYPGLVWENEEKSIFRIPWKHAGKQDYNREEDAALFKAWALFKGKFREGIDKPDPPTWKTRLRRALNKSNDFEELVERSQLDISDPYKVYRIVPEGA

[4] = molecular target: T4, IRF4 DBD C99S (Homo sapiens, UniProt Q15306 20-132, C99S); details: protein: recombinant; label: 3' fluorescein (FAM); hairpin, TTTT loop
T4 sequence: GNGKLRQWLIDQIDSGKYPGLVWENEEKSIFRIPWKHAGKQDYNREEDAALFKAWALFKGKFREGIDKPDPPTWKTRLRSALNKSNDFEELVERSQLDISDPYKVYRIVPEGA

[5] = molecular target: T5, IRF4 DBD T95A (Homo sapiens, UniProt Q15306 20-132, T95A); details: protein: recombinant; tags: N-terminal His8-linker-His8-TEV, cleaved; label: 3' fluorescein (FAM); hairpin, TTTT loop
T5 sequence: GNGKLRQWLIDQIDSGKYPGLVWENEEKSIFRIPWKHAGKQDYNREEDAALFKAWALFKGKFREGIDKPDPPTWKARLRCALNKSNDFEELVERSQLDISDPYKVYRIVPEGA

[6] = molecular target: T6, IRF4 DBD T95K (Homo sapiens, UniProt Q15306 20-132, T95K); details: protein: recombinant; tags: N-terminal His8-linker-His8-TEV, cleaved; label: 3' fluorescein (FAM); hairpin, TTTT loop
T6 sequence: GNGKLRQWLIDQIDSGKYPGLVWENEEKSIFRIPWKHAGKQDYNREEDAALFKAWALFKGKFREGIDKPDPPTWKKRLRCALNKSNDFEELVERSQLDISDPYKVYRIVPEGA

[7] = molecular target: T7, IRF4 DBD S114N (Homo sapiens, UniProt Q15306 20-132, S114N); details: protein: recombinant; tags: N-terminal His8-linker-His8-TEV, cleaved; label: 3' fluorescein (FAM); hairpin, TTTT loop
T7 sequence: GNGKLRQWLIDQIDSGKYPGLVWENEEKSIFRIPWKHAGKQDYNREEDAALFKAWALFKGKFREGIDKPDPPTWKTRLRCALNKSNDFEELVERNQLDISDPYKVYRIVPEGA

[8] = molecular target: T8, IRF4 DBD C99A (Homo sapiens, UniProt Q15306 20-132, C99A); details: protein: recombinant; tags: N-terminal His8-linker-His8-TEV, cleaved; label: 3' fluorescein (FAM); hairpin, TTTT loop
T8 sequence: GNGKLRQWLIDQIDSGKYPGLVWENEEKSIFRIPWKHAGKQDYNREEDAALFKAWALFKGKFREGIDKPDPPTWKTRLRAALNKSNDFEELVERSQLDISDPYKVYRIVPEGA

[9] = molecular target: T9, IRF4 DBD D117A (Homo sapiens, UniProt Q15306 20-132, D117A); details: protein: recombinant; tags: N-terminal His8-linker-His8-TEV, cleaved; label: 3' fluorescein (FAM); hairpin, TTTT loop
T9 sequence: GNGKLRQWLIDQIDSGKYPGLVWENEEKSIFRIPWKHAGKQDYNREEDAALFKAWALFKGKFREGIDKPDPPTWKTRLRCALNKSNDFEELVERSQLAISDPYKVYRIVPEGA

[10] = molecular target: T10, IRF4 DBD L70V (Homo sapiens, UniProt Q15306 20-132, L70V); details: protein: recombinant; tags: N-terminal His8-linker-His8-TEV, cleaved; label: 3' fluorescein (FAM); hairpin, TTTT loop
T10 sequence: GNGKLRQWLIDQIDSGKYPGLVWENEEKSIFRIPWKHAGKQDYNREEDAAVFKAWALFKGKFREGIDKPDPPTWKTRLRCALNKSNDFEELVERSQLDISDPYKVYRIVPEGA

## CTTGGTTTCACTTCCTGCGTTTTCGCAGGAAGTGAAACCAAG (structured_DNA) [IRE hairpin (FAM)]
[1]
  Kd: 565 ± 191 nM
[2]
  Kd: 131 ± 28 nM
[3]
  Kd: 279 ± 286 nM
[4]
  Kd: 243 ± 238 nM
[5]
  Kd: 105 ± 59 nM
[6]
  Kd: 298 ± 154 nM
[7]
  Kd: 181 ± 14 nM
[8]
  Kd: 353 ± 169 nM
[9]
  Kd: 109 ± 31 nM
[10]
  Kd: 127 ± 27 nM
